Assay results taken from paper PMC6546417 (Science (New York, N.Y.), 2009).
Where “and” joins values, the source holds several entries; their conditions need not be identical. Equal values may be shown once.

T1: Dnm1K41A (yeast, UniProt P54861 1-757, K41A)
T1 sequence (looked up): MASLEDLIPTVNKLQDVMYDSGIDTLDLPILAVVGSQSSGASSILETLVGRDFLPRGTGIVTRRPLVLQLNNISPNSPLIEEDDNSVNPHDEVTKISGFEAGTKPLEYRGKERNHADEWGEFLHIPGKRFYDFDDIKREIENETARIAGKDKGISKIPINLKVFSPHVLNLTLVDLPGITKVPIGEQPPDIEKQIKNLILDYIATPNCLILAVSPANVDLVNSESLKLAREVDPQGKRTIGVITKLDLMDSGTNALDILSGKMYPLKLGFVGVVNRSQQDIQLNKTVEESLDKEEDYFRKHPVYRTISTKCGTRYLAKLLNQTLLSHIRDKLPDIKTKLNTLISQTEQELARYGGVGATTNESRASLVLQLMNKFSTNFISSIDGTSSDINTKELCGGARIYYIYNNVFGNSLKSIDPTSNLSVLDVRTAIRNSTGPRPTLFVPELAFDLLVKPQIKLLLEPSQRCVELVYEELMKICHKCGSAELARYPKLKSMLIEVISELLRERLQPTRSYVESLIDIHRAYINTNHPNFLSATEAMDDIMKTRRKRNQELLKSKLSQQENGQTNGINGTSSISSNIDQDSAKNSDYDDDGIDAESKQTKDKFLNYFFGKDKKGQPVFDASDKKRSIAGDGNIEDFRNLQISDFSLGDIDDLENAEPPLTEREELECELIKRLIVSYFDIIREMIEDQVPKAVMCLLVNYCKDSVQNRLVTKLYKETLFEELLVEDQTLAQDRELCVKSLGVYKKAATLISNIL

B1: Dnm1 (enzyme, yeast, UniProt P54861 1-757, looked up)
chain: MASLEDLIPTVNKLQDVMYDSGIDTLDLPILAVVGSQSSGKSSILETLVGRDFLPRGTGIVTRRPLVLQLNNISPNSPLIEEDDNSVNPHDEVTKISGFEAGTKPLEYRGKERNHADEWGEFLHIPGKRFYDFDDIKREIENETARIAGKDKGISKIPINLKVFSPHVLNLTLVDLPGITKVPIGEQPPDIEKQIKNLILDYIATPNCLILAVSPANVDLVNSESLKLAREVDPQGKRTIGVITKLDLMDSGTNALDILSGKMYPLKLGFVGVVNRSQQDIQLNKTVEESLDKEEDYFRKHPVYRTISTKCGTRYLAKLLNQTLLSHIRDKLPDIKTKLNTLISQTEQELARYGGVGATTNESRASLVLQLMNKFSTNFISSIDGTSSDINTKELCGGARIYYIYNNVFGNSLKSIDPTSNLSVLDVRTAIRNSTGPRPTLFVPELAFDLLVKPQIKLLLEPSQRCVELVYEELMKICHKCGSAELARYPKLKSMLIEVISELLRERLQPTRSYVESLIDIHRAYINTNHPNFLSATEAMDDIMKTRRKRNQELLKSKLSQQENGQTNGINGTSSISSNIDQDSAKNSDYDDDGIDAESKQTKDKFLNYFFGKDKKGQPVFDASDKKRSIAGDGNIEDFRNLQISDFSLGDIDDLENAEPPLTEREELECELIKRLIVSYFDIIREMIEDQVPKAVMCLLVNYCKDSVQNRLVTKLYKETLFEELLVEDQTLAQDRELCVKSLGVYKKAATLISNIL

How the values were obtained:
[1] = target: the molecule itself; assay: negative-stain electron microscopy
Dnm1 = target: B1; assay: cell-based or functional assay
cross-linking = target: the molecule itself; assay: cross-linking
[2] = target: the molecule itself; assay: SEC + other: sucrose gradient sedimentation
Dnm1K41A = target: T1, Dnm1K41A; assay: liposome flotation

amount of GTP cross-linked to Dnm1 by ultraviolet light on addition of Mdv1 (Dnm1) [fold]	binding result (Dnm1K41A)	Binder	binding result [1]	stoichiometry N (cross-linking)	stoichiometry N [2]
–	–	B1	binds	–	–
1.4	binds	Mdv1 (natural protein, yeast, UniProt P47025 1-714, looked up) MSVNDQITHIGKTLSTTASAFLNYQKSNSNTQDVLTNNGPYKNLLSNTVNNASSTSYFYKRTEHGRFVKNASNTFEDIYSKTRRGDVFRNKFTDNKTCFRMLTYISDDLLNEIPTKEGLKSDADGKLLTEGGENENLRKNASKKETSLFQGFKSYLPIAELAIENTERLNYDTNGTSGTVGAKDVMSKTNERDEIHTELPNFQDSFLIPPGVETKKISSSYSPSALKSFSQTLVNSLEFLNIQKNSTLSEIRDIEVEVENLRQKKEKLLGKIANIEQNQLLLEDNLKQIDDRLDFLEEYGLEVIEANSDENAEDDGMSERKALKNDAIRNEGVTTESISSEASNLPPRRRQQLRDDNSLNRLGAFYSKSKKRHRKSFPTFQQLYEPGTKIGSIMSTHDDFLTCLDFDAPFGTLCTAGYLDHTVKIWDLSKQNKIGELAGHLATINCMQINRDYGTLVTGGRDAALKLWNLNLAQQLYQETQNLTSPTNHIDSPCVHTFEAHTDEVTALSLDPSFLVSGSQDRTIRQWDLRSGKCLQTIDLSFANVLTTSTNVDLSKSTLLTQRNERPSIGALQSFDAALATGTKDGVVRLWDLRSGKVIRTLKGHTDAITSLKFDSACLVTGSYDRTVRIWDLRTGLLNKFHAYSAPVLSLDLFQENAAVVVADEPSVQIYDSEKDESWSCVEQGNETSVSTVKYKENYMVEGRENGDVNIWAV	–	4 and 6	2
